Assay: yeast display, Sf9 membrane polyspecificity reagent, FACS + sequencing; frameworks hold sequencing errors
How it was run: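 Galactose-induced (36–48 hours) yeast carrying a synthetic nanobody display library were exposed to 10% biotinylated, detergent-solubilized Sf9 membrane reagent at 4 °C for 1 hour. FACS followed streptavidin microbead enrichment, using low and high (top ~1%) gates for expression (anti-HA) and reagent binding (streptavidin). Colony PCR, MiSeq 2 × 250 sequencing and CDR-length filtering followed. Labels for polyreactivity reflect the gate of origin.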

Sequence: QVQLVESGGGLVQSGGSLRLSCAASGSTFVSYDMGWYRQAPGKERELVADISWSGVSTYADSVKGRFTNSRDNAKNTVYLQMNSLKPEDTAVYYCAKDCDLYQRGGYYWGQGTQVTVSS
- polyreactivity (PSR sort gate): low polyreactivity

Sequence: QVQLVESGGGLVQAGGSLRLSCAASGPMFTSNAMGWYRQAPGKERELVAAISRRGTRTYYADSVKGRFTISRDIAKHSVYLQMNSLKPEDTAVYYCAATTGEQEDYWGQGTQVTVSS
- polyreactivity (PSR sort gate): high polyreactivity

Sequence: QVQLVESGGGLVQAGGSLRLSCAASGSIFYTYTMGWYRQAPGKERELVAAISTRGGSTYYADSVKGRFTISRDNAKNTFYLQMNSLKPEDTAVYYCAAGLQRYRMYYWGQGTQVTVSS
- polyreactivity (PSR sort gate): high polyreactivity

Sequence: QVQLVESGGGLVQAGGSLRLSCAASGITFGRNTMGWYRQAPGKERELVAAIDSGGNTYADSVKGRFTISRDNAKNTVYLQMNSLKPEDTAVYYCAVDGGEFSSYGYWGQGTEVTVSS
- polyreactivity (PSR sort gate): low polyreactivity

Sequence: QVQLVESGGGLVQAGGSLRVSCAASGFTFYRYAMGWYRQAPGKERELVAAITWSGGSTYYADSVKGRFTISRDNAKNTVYLQMNSLKPEDTAVYYCAADIYDGGFDYWGQGTQVTVSS
- polyreactivity (PSR sort gate): low polyreactivity

Sequence: QVQLVESVGGLVQAGGSLRLSCAASGSIFDVNAMGWYRQAPGKERELVAAITSSGGSTYYADSVKGRFTISRDNAKNTVYLQMNSLKPEDTAVYYCAAYSLYTMYWGQGTQVTVSS
- polyreactivity (PSR sort gate): low polyreactivity

Sequence: QVQLVESGGGLVQAGGSLRLSCAASGFIFQGYVMGWYRQAPGKEREFVAAISRSGGTTFYADSVKGRFTISRDNAKNTVYLQMNSLKPEDTAVYYCNRARLGRPGYDYWGQGTQVTVSS
- polyreactivity (PSR sort gate): high polyreactivity

Sequence: QVQLVESGGGLVQAGGSLRLSCAASGIIFGKYDMGWYRQAPGKERELVAAITSGTSTNYADSVKGRFTISRDNAKNTVYLQMNSLKPEDTAVYYCAADVYLYYPYFGHRRYNYWGQGTQVTVSS
- polyreactivity (PSR sort gate): high polyreactivity

Sequence: QVQLVESGGGLVQAGGSLRLSCAASGSIFTFNAMGWYRQAPGKERELDAGISWRTSSTSYADSVKGRFTNSRDNAKNTVYLQMNSLKPEDTAVYYCATEDSWGYEEVDYWGQGTQVTVSS
- polyreactivity (PSR sort gate): low polyreactivity

Sequence: QVRLVESGGGLVQAGGSLRLSCAASAFTFDSYAMGWNRQAPGKERELVAAITWSGGSTYYADSVKGRFTISRDIAKNTVYFQMNSLKPEDTAVYYCNVDRYDGDYCGQGTQVTVSS
- polyreactivity (PSR sort gate): high polyreactivity

Sequence: QVQLVESGGGLVQAGGSLRLSCAASGFTFQTYAMGWYRQAPGKERELVATINSSGGGTYYADSVKGRFTISRDNAKNTVYLQMNSLKPEDTAVDYCAADAVWFVGQAFDISDSTTYGYWGQGTQVTVSS
- polyreactivity (PSR sort gate): low polyreactivity

Sequence: QVQLVESGGGLFQAGGSLRLSCAASGSTFNTNAMAWYRHAPGKERELVAAISWSSTRTYYADSVKWRFTISRDNAKNTVYLQMNSLKPEDTAVYYCAAATYQSRYFQRFDYWGQGTQVTVSS
- polyreactivity (PSR sort gate): high polyreactivity

Sequence: QVQLVESGGGLVQAGGSLRLSCAASGFTFTSNAMGWYRQAPGKERELVAAITSSGGITYYADSVKGRFTISRDNAKNTVYLQMNSLKPEDTAVYYCAASISSYNSPGYGYWGQGTQVTVSS
- polyreactivity (PSR sort gate): low polyreactivity

Sequence: QVQLVESGGGLVQAGGSLRLSCAASGNIFFGYAMGWYRQAPGKEREYVATITKIGGSTYYADSVKGRFTISRDNAKNTVYLQMNSLKPEDTAVYYCAARLGHSVNPGGERWDVEYWGQGTQVTVSS
- polyreactivity (PSR sort gate): low polyreactivity

Sequence: QVQLVESGGGLVQAGGSLRLSCAASGFTVYSYPLGWYRQAPGKERELVAAITRSGGITYYADSVKGRFTISRDNAKNTVYLQMNSLKPEDTAVYYCNAYRGGLSSEHYYWGQGTQVTVSS
- polyreactivity (PSR sort gate): high polyreactivity

Sequence: QVQLVESGGGLVQAGGSLRLSCAASGSTFYGYTMGWYRQATGKERELVAVITYGGSTYYADSVKGRFTISRDNAKNTVYLQMNSLKPEDTAVYYCAKRYAYPAYGRPWRIGRTYDYWGQGTQVTVSS
- polyreactivity (PSR sort gate): low polyreactivity

Sequence: QVQLVESGGGLVQAGGSLRLSCAASGRTFYHYTMGWYRQAPGKERELVARITRRVGSTYYADSVKGRFTISRDNAKNTVYLQMNSLKPEDTAVYYCNDKSGLYRYLLDYWGQGTQVTVSS
- polyreactivity (PSR sort gate): high polyreactivity

Sequence: QVPLVESGGGLVQAGGSLRLSCAASGLTVSSYAMGWYRQAPGKERELVAVFSRTGGSTYYADSVKGRFTISRDNAKNTVYLQMNSLKPEDTAVYYCAARSYNGWRYDSWGQGTQVTVSS
- polyreactivity (PSR sort gate): high polyreactivity

Sequence: QVQLVESGGGLVQAGGSLRLSCAASGSIFYSYAKGWYRQAPGKERELVAAISWDASTYFADSVKGRFTISRDNAKYSVYLQMNSLKPEDTAVYYCNADIPYYFVYDAYDYWGQGTQVTVSS
- polyreactivity (PSR sort gate): low polyreactivity

Sequence: QVQLVESGGGLVQAGGSLRLSCAASGRTLSWYAMGWYRQAPGKERELVASISSGGGTYYADSVKGRFTISRDNAKNTVYLQMNSLKPEDTAVYYCAARYHYAKSPYRYYYWGQGTQVTVSS
- polyreactivity (PSR sort gate): high polyreactivity

Sequence: QVQLVESGGGLVQAGGSLRLTCAASGSTFGWYAMGWYRQAPGKERELVAAIRSNGGSTYYADSVKGRFTISRDNAKNTVYLHMNSLKPEDTAVYYCAGRGSPSKHHWYDYWGQGTQVNVSS
- polyreactivity (PSR sort gate): low polyreactivity

Sequence: HVQLVESGGGLVQAGGSLRLSCAASGRTFSFYVMGWYRQAPGKERELVAAISSSGGRTYYADSVKGRFTISRDNAKNTVYVQMNSLKPEDTAVYYCAVDQPFVSWRLFTQPDSYPRDYWGQGTQVTVSS
- polyreactivity (PSR sort gate): low polyreactivity

Sequence: QVQLVESGGGLVQAGGSLRLSCAASGSTFQVYTKGWYIQAPGKEREFVASISWSGSSTYYADSVKGRFTISRDNAKNTVYLQMNSLKPEDTAVYYCAARARIKYLADPGYYWGQGTQVTVSS
- polyreactivity (PSR sort gate): high polyreactivity

Sequence: QVQLVESGGGLVQAGGSLRLTCAASGSTSPANTMGWYRQAPGKETEFVAGISRRGGRTYYADSVKGRFTISRDNAKNTVYLQMNSLKPEDTAVFYCATALIVRCPSRYEYWGQGTQVTVSS
- polyreactivity (PSR sort gate): high polyreactivity

Sequence: QVQLVESGGGLVQAGGSLRLSCAASGSIFPLYAMGWYRQAPGKERELVAAISWSGGSTYYADSVKGRFTISRDNAKNTVYLKMNSLKPEDTAVYYCATLYISTSGYIYEGDYWGQGTQVTVSS
- polyreactivity (PSR sort gate): high polyreactivity

Sequence: QVQLVESGGGLVQAGGSLRLSCASSGRTFYIYDMGWYRQAPGKERELVAAITSVGSTNYADSVKGRFTISRDNAMNTVYLQMNSLKPEDTAVYYCAAESTVGTSGDYDYWGQGTQVTVSS
- polyreactivity (PSR sort gate): low polyreactivity

Sequence: QVQLVESGGGLVQAGGSLRLSCAASGGTITPYAMGWYRQAPGKERELVAAISRSGARTYYADSVKGRFTISRDNAKNTVYLQMNSLKPEDTAVYYCAKTFSGYRFDYWGQGTQVTVSS
- polyreactivity (PSR sort gate): high polyreactivity

Sequence: QVQLVESGGGLVQAGGSLRLSCAASGFTFAGYAMGWYRQAPGKEMELVAAINYRGVRTYYADSVKGRFTISRDNSKNTVYLQMNSLIPEDTAVYYCAALPFLPGGGYVIHRFYYWGQGSQVTVSS
- polyreactivity (PSR sort gate): high polyreactivity

Sequence: QVQLVESGGGIVQAGGSLRLSCAASGGIFWRYAMGWYRQAPGKERELVAAISSRGGSTYYADSVKGRFTISRDNAKNTVYLQMNSLKPEDTAVYYCAADRRYAESGYYWGHGTQVTVSS
- polyreactivity (PSR sort gate): high polyreactivity

Sequence: HLQLVESGGGLVQAGGSLRLSCAPSGSTFKRNTKGWYRQAPGKEREMVASINRGGSTYYADSVKGRFTISSDNAKNTVYLQMNSLKPEDTAVYYCAKRVLNCYTGTQAPNKFGYWGQGTQVTVSS
- polyreactivity (PSR sort gate): low polyreactivity

Sequence: QVQLVESGGGLVQAGGSLRLSCAASGRIFYQYAMGWYRQAPGKEREFVAAISISGTSTYADSVKGRFTISRDNAKNTVYLQMNSLIPEDTAFYYCNVGPRAGWYRSNYDYWGQGTQVTVSS
- polyreactivity (PSR sort gate): low polyreactivity

Sequence: QVQLVESGGGLVQPGGSLRLSCAASGFTFYPYVMGWYRQAPGKERELVAPINSGGARTYYADSEKGRFTISRDNAKNTVYYQIIRLKPEDTAVYYCAARTVVGGRIYYYWGQGTQVTVSS
- polyreactivity (PSR sort gate): low polyreactivity

Sequence: QVHLVESGGGLVQAGGSLRLSCAASGFILPYYAMGWYRQAPGKERELVAAISRSGGGTYYADSVKGRFTISRDNAKNTVYLQMNSLKPEDTAVYYCAADYSAYEYEYWGQGTQVTVSS
- polyreactivity (PSR sort gate): high polyreactivity

Sequence: QVQLEESGGGLVQAGGSLRLSCAAYGSIFRFYAMGRYRQAPGKERQFVASITGTGGSTYYADSVKGRFTISRDNAKNTVYLQMNSLKPEDTAVYYCAKTQYSFPRLGYDYWGQGTQVTVSS
- polyreactivity (PSR sort gate): high polyreactivity

Sequence: PVQLVESGGGLVHAGGRHRLSSAASGSIFNYYPMGWYRKAPGTERELVATISAGGSTNYADSVTGRFTISRDNAKNTVYLHKNRLKPEDTAVYYCNRARYYLTSYTYLTSYDYWGQGTQGTVSS
- polyreactivity (PSR sort gate): high polyreactivity

Sequence: QVQLVESGGGLVQAGGSLRLSCAASGRTSNFNAMGWYRQAPGKERELVAAINSDGSTYYADSVKGRFTISRDNAKNTVYLQMNSLKPEDTAVYYCAAVSLFRDSQFDYWGQGTQVTVSS
- polyreactivity (PSR sort gate): low polyreactivity

Sequence: QVQLVESGGGLVPAGGSLRLSCAASGRIFPQYAMGWYRQAPGKERELVAAISYRGGSTYYADSVKGRFTISRDNAKNTVYSQMNSLKPEDTAVYYCAAKRYNYWGQGTQVTVST
- polyreactivity (PSR sort gate): high polyreactivity

Sequence: QVQLVESAGGLVQAGGSLRLSCAASGRIFWLYAMGWYRQAPGKERELVASISQSGANTYYADSVKGRFTISRDNSKNNVYLQMNCLKPEYTSVDYCSSNRYDSYYFWVGYWGQGSQVTVSS
- polyreactivity (PSR sort gate): low polyreactivity

Sequence: QVQLQERGGRLVQAGGSLRLSCAASGSIFTQATMGCDRQAPGKERELVAAINFGSSTYYADSVKGRFTISRDNAKSTVYLQMNSLKPEDTAVYYCAVRALWYDFHDYWGQGTQVTVSS
- polyreactivity (PSR sort gate): high polyreactivity

Sequence: QVQLVESGGGLVHAGGRLRLSCAASGSMFYPYAMGWYRQAPGKERELVAAISRSGGSTRYADSVKGRFTISRDHAQNTVYLQMNSLKPEDTAVYYCAVRVFYGVGLIGYYYWGQGSQVTVSS
- polyreactivity (PSR sort gate): high polyreactivity

Sequence: QVHLVESGGGLVQAGGSLRLSCAASGSIFAWYGMGWYRQAPGKERELVAAISTAGSTNYADSVKGRFTISRDNAKNTVYLQMNSLKPEDTAVYYCAADWGGLWFWYEYWGQCTQVTVSS
- polyreactivity (PSR sort gate): low polyreactivity

Sequence: QVQLVESGGGLVQAGGSLRLSCAASGRTFVPYAMGWYIQAPGKEREFVAAISSRVGSTYYADSVKGRFTISRDNAKNTVYLQMKSLKPEDTAVYYCNAPFKPAGFYSAWKYDYWGQGTQVSVSS
- polyreactivity (PSR sort gate): low polyreactivity

Sequence: QVQLVESGGGLVQAGGSLRLSCAASGRIFYRNVMGWYRQAPGKERELVAAISYRGGSTSYADSVKGRFTISRDNAKNTVYLQMYSLKPEDTAVYYCNAGRIRPAYSDREYWGQGTQVTVSS
- polyreactivity (PSR sort gate): low polyreactivity
